Where two headings read alike, the source gives them in different places.
Key:
Experiment in all cases: NMR titration
[1] = molecular target: T1, N 1-209 (nucleocapsid N-terminal region: N-terminal flank, NTD and SR region) (SARS-CoV-2, UniProt P0DTC9 1-209)
[2] = molecular target: T1, N 1-209 (nucleocapsid N-terminal …); remark: listed apart in the source
[3] = molecular target: T1, N 1-209 (nucleocapsid N-terminal …); remark: listed apart in the source

Binder | Kd [1] | Kd [3] | other results
GGUGGGAGCCUCUUUUAUGGGGUGACUGCC (structured_RNA) [H25 30-mer] | 19.9 ± 4.7 µM |  | 
GUGUGUGCCUGU (ssRNA) [GU 12-mer] |  |  | Kd [2]: 6 ± 2 µM
AAUAA (ssRNA) |  | 189 ± 22 µM | 
UAAUAAC (mixed, 2'-deoxy at terminal nucleotides 1 (dU) and 7 (dC); remainder RNA) [dUAAUAAdC] |  | 138 ± 12 µM | 
TAATAAC (ssDNA) | 110 ± 8 µM |  | 

Reference: publication PMC8214912
